Source: patent US20190203248A1 (Bristol-Myers Squibb, published 2019)

Legend:
human serum albumin [1] = target: T1, human serum albumin (human, UniProt P02768 25-609); assay: binding kinetics, HBS-P buffer, 25 C
T1 construct: also called HSA; HuSA

rhesus serum albumin [2] = target: T2, rhesus serum albumin (rhesus, UniProt Q28522 17-600); assay: binding kinetics, HBS-P buffer, 25 C
T2 construct: also called RhSA

human serum albumin [3] = target: T1, human serum albumin; assay: binding kinetics, HBS-P buffer, 37 C
rhesus serum albumin [4] = target: T2, rhesus serum albumin; assay: binding kinetics, HBS-P buffer, 37 C
human serum albumin [5] = target: T1, human serum albumin; assay: binding kinetics, MES buffer, pH 5.5
rhesus serum albumin [6] = target: T2, rhesus serum albumin; assay: binding kinetics, MES buffer, pH 5.5
human serum albumin [7] = target: T1, human serum albumin; assay: binding kinetics, MES buffer, pH 7.4
rhesus serum albumin [8] = target: T2, rhesus serum albumin; assay: binding kinetics, MES buffer, pH 7.4
human serum albumin [9] = target: T1, human serum albumin; assay: binding kinetics, HBS-P buffer, 37 C against 25 C
rhesus serum albumin [10] = target: T2, rhesus serum albumin; assay: binding kinetics, HBS-P buffer, 37 C against 25 C
human serum albumin [11] = target: T1, human serum albumin; assay: binding kinetics, HBS-P buffer, 25 C; 25 C, HBS-P buffer
rat serum albumin = rat serum albumin (rat, UniProt P02770 25-608); assay: direct binding ELISA on plate-coated albumin, absorbance 450 nm
Sequence of rat serum albumin (P02770 25-608 limits assumed): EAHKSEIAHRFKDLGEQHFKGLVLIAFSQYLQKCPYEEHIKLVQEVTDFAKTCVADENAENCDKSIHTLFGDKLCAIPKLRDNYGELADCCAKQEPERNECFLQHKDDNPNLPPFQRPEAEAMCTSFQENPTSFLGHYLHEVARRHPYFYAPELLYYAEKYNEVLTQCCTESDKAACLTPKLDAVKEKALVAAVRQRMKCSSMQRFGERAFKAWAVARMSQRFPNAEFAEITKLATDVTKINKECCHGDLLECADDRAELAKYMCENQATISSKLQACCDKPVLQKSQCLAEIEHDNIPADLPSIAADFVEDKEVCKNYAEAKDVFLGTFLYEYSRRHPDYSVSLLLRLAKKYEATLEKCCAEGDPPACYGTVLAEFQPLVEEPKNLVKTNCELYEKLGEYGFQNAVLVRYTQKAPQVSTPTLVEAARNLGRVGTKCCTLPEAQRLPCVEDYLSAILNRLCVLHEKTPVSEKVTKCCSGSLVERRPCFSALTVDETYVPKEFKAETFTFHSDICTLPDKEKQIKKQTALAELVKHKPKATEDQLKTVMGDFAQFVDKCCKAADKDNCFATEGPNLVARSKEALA
Protocol: (§1) For dose response assays, concentrations ranging from 0.1 nM up to 1 μM were used. After washing in PBST to remove unbound Adnectins™, anti-His mAb-HRP conjugate (R&D Systems, MN) diluted 1:2500 in casein block buffer was added to the bound His-tagged Adnectins™ for 1 hour at room temperature. Excess conjugate was removed by washing with PBST and bound Adnectins™ detected using TMB detection reagents (BD Biosciences) according to the manufacturer's instructions.

human serum albumin [12] = target: T1, human serum albumin; assay: as above
Protocol: as §1

murine serum albumin [13] = target: T3, murine serum albumin (mouse, UniProt P07724 25-608); assay: as above
T3 construct: also called MuSA; mouse serum albumin
T3 sequence (P07724 25-608 limits assumed): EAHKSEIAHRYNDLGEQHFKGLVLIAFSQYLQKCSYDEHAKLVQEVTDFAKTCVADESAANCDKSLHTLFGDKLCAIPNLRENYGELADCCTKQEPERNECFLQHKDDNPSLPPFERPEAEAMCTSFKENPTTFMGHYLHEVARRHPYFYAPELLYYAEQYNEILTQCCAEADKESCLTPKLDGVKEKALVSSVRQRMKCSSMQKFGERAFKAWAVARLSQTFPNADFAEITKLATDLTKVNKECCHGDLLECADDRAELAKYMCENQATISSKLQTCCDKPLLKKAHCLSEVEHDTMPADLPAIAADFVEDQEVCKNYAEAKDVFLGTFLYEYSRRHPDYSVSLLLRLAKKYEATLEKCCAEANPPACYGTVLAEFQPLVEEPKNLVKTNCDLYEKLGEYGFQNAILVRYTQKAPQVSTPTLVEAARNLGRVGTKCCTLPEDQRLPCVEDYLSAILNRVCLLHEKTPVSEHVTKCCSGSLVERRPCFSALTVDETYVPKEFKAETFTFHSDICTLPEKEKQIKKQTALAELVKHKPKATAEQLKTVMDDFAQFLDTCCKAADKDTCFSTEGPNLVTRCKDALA
Protocol: as §1

human β-klotho [14] = target: T4, human β-klotho (human, UniProt Q86Z14 1-1044); assay: cell-based or functional assay
human β-klotho [15] = target: T4, human β-klotho; assay: cell-based or functional assay; remark: listed apart in the source
[16] = target: T5, β-klotho of differentiated 3T3-L1 adipocytes (mouse, UniProt Q99N32 1-1043); assay: cell-based or functional assay
T5 sequence (looked up): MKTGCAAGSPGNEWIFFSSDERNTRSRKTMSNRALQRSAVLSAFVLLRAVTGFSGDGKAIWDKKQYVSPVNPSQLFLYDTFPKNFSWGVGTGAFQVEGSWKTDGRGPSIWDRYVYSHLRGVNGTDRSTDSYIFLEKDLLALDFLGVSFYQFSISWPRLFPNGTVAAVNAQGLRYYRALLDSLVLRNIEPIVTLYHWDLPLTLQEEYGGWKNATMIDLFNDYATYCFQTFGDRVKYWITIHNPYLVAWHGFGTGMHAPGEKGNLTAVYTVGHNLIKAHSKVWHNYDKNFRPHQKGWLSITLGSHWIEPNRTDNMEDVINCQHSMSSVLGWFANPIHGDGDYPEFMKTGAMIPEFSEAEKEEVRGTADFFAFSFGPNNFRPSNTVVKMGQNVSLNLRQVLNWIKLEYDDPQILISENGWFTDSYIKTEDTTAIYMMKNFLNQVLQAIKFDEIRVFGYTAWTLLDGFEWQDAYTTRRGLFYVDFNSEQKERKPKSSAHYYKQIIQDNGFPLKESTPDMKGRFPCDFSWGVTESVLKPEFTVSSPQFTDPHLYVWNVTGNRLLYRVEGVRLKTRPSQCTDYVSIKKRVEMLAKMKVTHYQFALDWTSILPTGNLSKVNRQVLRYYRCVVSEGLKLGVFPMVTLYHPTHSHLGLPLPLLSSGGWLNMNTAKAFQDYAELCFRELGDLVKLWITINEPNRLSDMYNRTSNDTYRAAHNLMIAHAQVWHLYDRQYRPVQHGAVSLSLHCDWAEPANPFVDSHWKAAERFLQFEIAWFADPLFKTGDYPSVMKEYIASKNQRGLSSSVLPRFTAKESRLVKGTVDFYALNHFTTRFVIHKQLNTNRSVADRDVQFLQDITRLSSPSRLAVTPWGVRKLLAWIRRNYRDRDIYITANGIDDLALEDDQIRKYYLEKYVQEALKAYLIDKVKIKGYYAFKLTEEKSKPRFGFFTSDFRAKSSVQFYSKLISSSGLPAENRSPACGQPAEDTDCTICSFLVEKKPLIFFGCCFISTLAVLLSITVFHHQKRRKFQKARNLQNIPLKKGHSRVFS

human serum albumin [17] = target: T1, human serum albumin; assay: isothermal titration calorimetry, 37 C, PBS
Protocol: SABA-FGF21 fusion protein plus buffer was placed in the instrument sample cell at a concentration range of 0.4 to 1.0 mg/mL protein. The matching buffer was placed in the reference cell. Concentrations were determined using extinction coefficients calculated from the protein sequences of the pure proteins. The instrument reaction cell was equilibrated at 37° C. […] The resultant thermogram data was fitted using Origin™ evaluation software package (Microcal Inc.) version 2.0.2 to estimate the stochiometry, enthalpy, and equilibrium disassociation constant (KD) of the protein—protein binding reaction.

human serum albumin [18] = target: T1, human serum albumin; assay: SPR (Biacore T100), HSA immobilized, 25 C, 30 µl/min
Protocol: (§2) Serum albumins were dissolved in PBS buffer (10 mM sodium phosphate, 130 mM sodium chloride, pH 7.1) to a concentration of 10 mg/ml, and subsequently diluted to 8-10 μg/ml in 10 mM sodium acetate pH 5.0 for immobilization. Serum albumins were immobilized on a Series S CM5 sensor chip using standard ethyl(dimethylaminopropyl) carbodiimide (EDC)/N-hydroxysuccinimide (NHS) chemistry in HBS-EP+ running buffer at 25° C., following general manufacturer guidelines. Flow cell 1 was activated with EDC/NHS and blocked with ethanolamine. […] Kinetic experiments were performed in PBS buffer containing 0.05% tween-20 (running buffer) at either 25° C. or 37° C. […] These samples were injected across flow cells 1-4 for 300 s, with a 420 s dissociation time, at flow rates of 30 μl/min or 60 μl/min to check for mass transfer limitation. All surfaces were regenerated with 2 pulses of 10 mM glycine pH 2.0 at 30 μl/min for 30 s. Raw sensograms were “double-referenced” by subtracting flow cell 1 data from flow cell 2, 3 or 4 data, and then subtracting a separate buffer cycle from each sensogram. The double-referenced sensogram data was fitted to a 1:1 Langmuir model using Biacore T100 Evaluation software version 2.0.2 to determine the association rate constant (ka), the dissociation rate constant (kd), and the equilibrium dissociation constant (KD).

human serum albumin [19] = target: T1, human serum albumin; assay: SPR (Biacore T100), HSA immobilized, 37 C, 30 µl/min
Protocol: as §2

[20] = target: T6, cynomolgous monkey serum albumin (cynomolgous monkey, UniProt A2V9Z4 25-608); assay: SPR (Biacore T100), CySA immobilized, 25 C, 30 µl/min
T6 construct: also called CySA
T6 sequence (A2V9Z4 25-608 limits assumed): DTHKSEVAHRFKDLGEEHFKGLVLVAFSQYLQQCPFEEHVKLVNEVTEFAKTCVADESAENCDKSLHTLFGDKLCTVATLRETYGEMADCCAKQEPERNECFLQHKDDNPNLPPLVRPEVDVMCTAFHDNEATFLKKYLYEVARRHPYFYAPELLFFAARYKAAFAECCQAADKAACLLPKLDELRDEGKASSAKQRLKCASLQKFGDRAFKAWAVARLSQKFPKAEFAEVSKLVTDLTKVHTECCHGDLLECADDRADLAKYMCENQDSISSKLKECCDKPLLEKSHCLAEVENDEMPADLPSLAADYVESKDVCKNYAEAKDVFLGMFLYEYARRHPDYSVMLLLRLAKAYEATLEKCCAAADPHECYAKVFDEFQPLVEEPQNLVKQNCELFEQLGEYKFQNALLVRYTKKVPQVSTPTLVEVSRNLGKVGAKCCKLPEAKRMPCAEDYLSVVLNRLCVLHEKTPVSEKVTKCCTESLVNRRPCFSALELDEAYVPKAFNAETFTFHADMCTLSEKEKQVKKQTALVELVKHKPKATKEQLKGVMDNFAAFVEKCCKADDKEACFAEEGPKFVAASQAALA
Protocol: as §2

[21] = target: T6, cynomolgous monkey serum albumin; assay: SPR (Biacore T100), CySA immobilized, 37 C, 30 µl/min
Protocol: as §2

murine serum albumin [22] = target: T3, murine serum albumin; assay: SPR (Biacore T100), immobilized MuSA, analyte series 1000 to 62.5 nM, 37 C
Protocol: as §2

rhesus serum albumin [23] = target: T2, rhesus serum albumin; assay: comment in summary table
murine serum albumin [24] = target: T3, murine serum albumin; assay: SPR (Biacore), albumin immobilized on CM5 chip
Protocol: In addition, binding to albumin was carried out under various pH conditions ranging from pH 5.5 to pH 7.4.

T2 sequence (Q28522 17-600 limits assumed): as the sequence (A2V9Z4 25-608 limits assumed) above

B1: SABA1.2 (designed binder)
chain: MGVSDVPRDLEVVAATPTSLLISWHSYYEQNSYYRITYGETGGNSPVQEFTVPYSQTTATISGLKPGVDYTITVYAVYGSKYYYPISINYRTEIEDEDEDEDED
notes: also called core 1 10Fn3 comprising an (ED)5 extension
Kd (human serum albumin [1]): 55.3 nM
koff (human serum albumin [1]): 0.000443 s⁻¹
Kd (rhesus serum albumin [2]): 580 nM
koff (rhesus serum albumin [2]): 0.00378 s⁻¹
kon (rhesus serum albumin [2]): 6600 M⁻¹ s⁻¹
Kd (human serum albumin [3]): 24.1 nM
koff (human serum albumin [3]): 0.000815 s⁻¹
kon (human serum albumin [3]): 33800 M⁻¹ s⁻¹
Kd (rhesus serum albumin [4]): 977 nM
koff (rhesus serum albumin [4]): 0.0185 s⁻¹
kon (rhesus serum albumin [4]): 18900 M⁻¹ s⁻¹
Kd (human serum albumin [5]): 28.6 nM
koff (human serum albumin [5]): 0.00027 s⁻¹
kon (human serum albumin [5]): 9440 M⁻¹ s⁻¹
Kd (rhesus serum albumin [6]): 359 nM
koff (rhesus serum albumin [6]): 0.00272 s⁻¹
kon (rhesus serum albumin [6]): 7570 M⁻¹ s⁻¹
Kd (human serum albumin [7]): 41.9 nM
koff (human serum albumin [7]): 0.000388 s⁻¹
kon (human serum albumin [7]): 9260 M⁻¹ s⁻¹
Kd (rhesus serum albumin [8]): 479 nM
koff (rhesus serum albumin [8]): 0.00295 s⁻¹
kon (rhesus serum albumin [8]): 6160 M⁻¹ s⁻¹
fold increase in affinity at 37 C against 25 C (human serum albumin [9]): ~2 fold
ratio of affinity at 37 C against 25 C (rhesus serum albumin [10]): 0.5 fold
kon (human serum albumin [11]): 8210 M⁻¹ s⁻¹
binding result (rat serum albumin): no binding (tested: 1000 nM)
EC50 (read off the curve) (human serum albumin [12]): ~7 nM
binding result (murine serum albumin [13]): no binding (tested: 1000 nM)

B2: SABA1-FGF21v1 (designed binder)
chain: MGVSDVPRDLEVVAATPTSLLISWHSYYEQNSYYRITYGETGGNSPVQEFTVPYSQTTATISGLKPGVDYTITVYAVYGSKYYYPISINYRTEIEKPSQGSGSGSGSGSGSGSPIPDSSPLLQFGGQVRQRYLYTDDAQQTEAHLEIREDGTVGGAADQSPESLLQLKALKPGVIQILGVKTSRFLCQRPDGALYGSLHFDPEACSFRELLLEDGYNVYQSEAHGLPLHLPGNKSPHRDPAPRGPARFLPLPGLPPALPEPPGILAPQPPDVGSSDPLSMVGPSQGRSPSYAS
notes: Fusion: SABA core 1 with AdNT1 leader and AdCT7 tail, (GS)7 linker, FGF21 core with FNT3 leader and C-terminal S; also called SABA-FGF21v1 fusion; SABA1-FGF21 variant 1
fold shift of potency (EC50) relative to His-tagged FGF21, pERK 1/2 assay (human β-klotho [14]): ~15 fold
EC50 (nM), pERK 1/2 assay in HEK β-Klotho expressing stable cells (human β-klotho [15]): 102 nM
EC50 (nM), pERK assay in 3T3-L1 adipocytes [16]: 11 nM
Fold Activation, pERK assay in 3T3-L1 adipocytes [16]: 1.8 fold
Kd (human serum albumin [17]): 3.8 nM
ΔH (human serum albumin [17]): -15.4 kcal/mol
Kd (human serum albumin [18]): 98 nM
koff (human serum albumin [18]): 0.000333 s⁻¹
kon (human serum albumin [18]): 3380 M⁻¹ s⁻¹
Kd (human serum albumin [19]): 190 nM
koff (human serum albumin [19]): 0.00111 s⁻¹
kon (human serum albumin [19]): 5960 M⁻¹ s⁻¹
Kd [20]: 1200 nM
koff [20]: 0.0047 s⁻¹
kon [20]: 3930 M⁻¹ s⁻¹
Kd [21]: 2800 nM
koff [21]: 0.0123 s⁻¹
kon [21]: 4440 M⁻¹ s⁻¹
binding result (murine serum albumin [22]): no binding (tested: 1000 nM)

B3: SABA5.1 (designed binder)
chain: MGVSDVPRDLEVVAATPTSLLISWEDDSYYSRYYRITYGETGGNSPVQEFTVPSDLYTATISGLKPGVDYTITVYAVTYDVTDLIMHEPISINYRTEIDKPSQHHHHHH
notes: His6-tagged Adnectin core 5; same BC, DE and FG loops as SABA4
binding result (rhesus serum albumin [23]): binds
binding result (murine serum albumin [24]): no binding
